B1: Pleckstrin homology domain-containing family M member 1 (Homo sapiens), Q9Y4G2 (parent)
chain: MLSVVENGLDPQAAIPVIKKKLVGSVKALQKQYVSLDTVVTSEDGDANTMCSALEAVFIHGLHAKHIRAEAGGKRKKSAHQKPLPQPVFWPLLKAVTHKHIISELEHLTFVNTDVGRCRAWLRLALNDGLMECYLKLLLQEQARLHEYYQPTALLRDAEEGEFLLSFLQGLTSLSFELSYKSAILNEWTLTPLALSGLCPLSELDPLSTSGAELQRKESLDSISHSSGSEDIEVHHSGHKIRRNQKLTASSLSLDTASSSQLSCSLNSDSCLLQENGSKSPDHCEEPMSCDSDLGTANAEDSDRSLQEVLLEFSKAQVNSVPTNGLSQETEIPTPQASLSLHGLNTSTYLHCEAPAEPLPAQAASGTQDGVHVQEPRPQAPSPLDLQQPVESTSGQQPSSTVSETAREVGQGNGLQKAQAHDGAGLKLVVSSPTSPKNKSWISEDDFYRPSREQPLESASDHPIASYRGTPGSRPGLHRHFSQEPRKNCSLGALDQACVPSPGRRQAQAAPSQGHKSFRVVHRRQMGLSNPFRGLMKLGTVERRGAMGIWKELFCELSPLEFRLYLSNEEHTCVENCSLLRCESVGPAHSDGRFELVFSGKKLALRASSQDEAEDWLDRVREALQKVRPQQEDEWVNVQYPDQPEEPPEAPQGCLSPSDLLSEPAALQGTQFDWSSAQVPEPDAIKESLLYLYMDRTWMPYIFSLSLEALKCFRIRNNEKMLSDSHGVETIRDILPDTSLGGPSFFKIITAKAVLKLQAGNAEEAALWRDLVRKVLASYLETAEEAVTLGGSLDENCQEVLKFATRENGFLLQYLVAIPMEKGLDSQGCFCAGCSRQIGFSFVRPKLCAFSGLYYCDICHQDDASVIPARIIHNWDLTKRPICRQALKFLTQIRAQPLINLQMVNASLYEHVERMHLIGRRREQLKLLGDYLGLCRSGALKELSKRLNHRNYLLESPHRFSVADLQQIADGVYEGFLKALIEFASQHVYHCDLCTQRGFICQICQHHDIIFPFEFDTTVRCAECKTVFHQSCQAVVKKGCPRCARRRKYQEQNIFA

Columns and labels:
[1] = variants of: B1; conditions: with rab7a_canlf RAB7A
[2] = variants of: B1; conditions: with gbrap_human GABARAP

Variant	effect of a mutation on the interaction [1]	effect of a mutation on the interaction [2]
S432D;S435D	with no effect	with no effect
S432A;S435A	with no effect	with no effect

From IntAct's records for PubMed 33452816
